Laboratory results published in patent publication US20150307555A1.

What was measured:
[1] = target: human V2 receptor (human) (UniProt P30518); experiment: cell-based or functional assay
[2] = target: human V1b receptor (human) (UniProt P47901); experiment: cell-based or functional assay
Chain of human V1b receptor (human) (P47901 whole entry): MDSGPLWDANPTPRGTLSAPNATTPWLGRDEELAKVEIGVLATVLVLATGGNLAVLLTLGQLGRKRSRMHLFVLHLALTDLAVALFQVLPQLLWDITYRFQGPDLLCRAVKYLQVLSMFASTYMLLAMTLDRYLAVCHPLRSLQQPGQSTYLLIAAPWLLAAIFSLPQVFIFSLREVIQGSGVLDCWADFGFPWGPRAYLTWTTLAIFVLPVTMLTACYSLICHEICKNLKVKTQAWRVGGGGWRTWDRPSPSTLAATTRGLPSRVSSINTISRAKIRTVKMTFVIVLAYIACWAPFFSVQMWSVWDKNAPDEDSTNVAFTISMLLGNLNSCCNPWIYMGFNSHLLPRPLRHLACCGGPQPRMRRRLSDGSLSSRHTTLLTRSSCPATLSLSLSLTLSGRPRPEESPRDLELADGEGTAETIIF

Row | Substance | EC50 hV2-R [1] [nM] | % Efficacy hV1b-R [2] [%] | % Efficacy hV2-R [1] [%]
1 | Arginine Vasopressin (peptide; unit assumed) | 0.04 | – | –
2 | Desmopressin, [1-deamino, 8-D-arginine]-vasopressin (peptide) | – | 100 | 100
3 | [Val4]dDAVP (peptide) | – | – | 89
4 | [Val4]dDAVP (peptide; unit assumed) | 0.05 | – | –
